# Assay results taken from publication PMC9546773, “Prediction of protein–ligand binding affinity from sequencing data with interpretable machine learning”.
# Residue numbers refer to the chain shown, from its start.
# B1: probe 1 (dsDNA)
# DNA 1: GTTCAGAGTTCTACAGTCCGACCTGGTTTAATTGGTCCAGGACTCGGACCTGGACTAGG
# DNA 2: CCTAGTCCAGGTCCGAGTCCTGGACCAATTAAACCAGGTCGGACTGTAGAACTCTGAAC
# B2: probe 4 (dsDNA)
# DNA 1: B1 DNA 1 with T33G
# DNA 2: B1 DNA 2 with A27C
# B3: probe 3 (dsDNA)
# DNA 1: B1 DNA 1 with A31T
# DNA 2: B1 DNA 2 with T29A
# B4: probe 2 (dsDNA)
# DNA 1: B1 DNA 1 with A30G
# DNA 2: B1 DNA 2 with T30C
# Target: Dll (DllΔN) (Drosophila melanogaster, UniProt P20009 124-327)
# Test: EMSA; 1:1 mix of dialysis buffer (20 mM HEPES pH 8.0, 200 mM NaCl, 10% glycerol, 2 mM MgCl2, 0.05% Tween 20) and DNA mix; final about 150 mM NaCl, 10 mM Tris pH 7.5
# Details: tags: His6 (kept); label: Cy5 on the primer strand
# Dll (DllΔN), sequence (P20009 124-327, stated change not applied): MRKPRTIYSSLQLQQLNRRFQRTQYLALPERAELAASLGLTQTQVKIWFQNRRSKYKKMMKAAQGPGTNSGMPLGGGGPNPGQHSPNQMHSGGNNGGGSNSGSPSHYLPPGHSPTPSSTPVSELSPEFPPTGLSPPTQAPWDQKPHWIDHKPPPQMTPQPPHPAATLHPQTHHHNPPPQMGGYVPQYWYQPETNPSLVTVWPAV
row,Binder,Kd
1,B1,5.2 nM
2,B2,40.8 nM
3,B3,~2640 nM
4,B4,92.7 nM
